{
  "source": "paper PMC5068790",
  "binders": {"B1": {"name": "Δ3-β2 (β2 subunit with the inactivation ball FIW deleted) (natural protein)", "chain": "MTSGRTSSSYRHDEKRNIYQKIRDHDLLDKRKTVTALKAGEDRAILLGLAMMVCSIMMYFLLGITLLRSYMQSVWTEESQCTLLNASITETFNCSFSCGPDCWKLSQYPCLQVYVNLTSSGEKLLLYHTEETIKINQKCSYIPKCGKNFEESMSLVNVVMENFRKYQHFSCYSDPEGNQKSVILTKLYSSNVLFHSLFWPTCMMAGGVAIVAMVKLTQYLSLLCERIQRINR"}, "B2": {"name": "BK channel auxiliary β2 subunit (natural protein)", "chain": "MFIWTSGRTSSSYRHDEKRNIYQKIRDHDLLDKRKTVTALKAGEDRAILLGLAMMVCSIMMYFLLGITLLRSYMQSVWTEESQCTLLNASITETFNCSFSCGPDCWKLSQYPCLQVYVNLTSSGEKLLLYHTEETIKINQKCSYIPKCGKNFEESMSLVNVVMENFRKYQHFSCYSDPEGNQKSVILTKLYSSNVLFHSLFWPTCMMAGGVAIVAMVKLTQYLSLLCERIQRINR"}},
  "key": {"[1]": {"target": "mouse Slo1 (BK channel α subunit) (mouse) (UniProt Q08460)", "sequence (Q08460 whole entry)": "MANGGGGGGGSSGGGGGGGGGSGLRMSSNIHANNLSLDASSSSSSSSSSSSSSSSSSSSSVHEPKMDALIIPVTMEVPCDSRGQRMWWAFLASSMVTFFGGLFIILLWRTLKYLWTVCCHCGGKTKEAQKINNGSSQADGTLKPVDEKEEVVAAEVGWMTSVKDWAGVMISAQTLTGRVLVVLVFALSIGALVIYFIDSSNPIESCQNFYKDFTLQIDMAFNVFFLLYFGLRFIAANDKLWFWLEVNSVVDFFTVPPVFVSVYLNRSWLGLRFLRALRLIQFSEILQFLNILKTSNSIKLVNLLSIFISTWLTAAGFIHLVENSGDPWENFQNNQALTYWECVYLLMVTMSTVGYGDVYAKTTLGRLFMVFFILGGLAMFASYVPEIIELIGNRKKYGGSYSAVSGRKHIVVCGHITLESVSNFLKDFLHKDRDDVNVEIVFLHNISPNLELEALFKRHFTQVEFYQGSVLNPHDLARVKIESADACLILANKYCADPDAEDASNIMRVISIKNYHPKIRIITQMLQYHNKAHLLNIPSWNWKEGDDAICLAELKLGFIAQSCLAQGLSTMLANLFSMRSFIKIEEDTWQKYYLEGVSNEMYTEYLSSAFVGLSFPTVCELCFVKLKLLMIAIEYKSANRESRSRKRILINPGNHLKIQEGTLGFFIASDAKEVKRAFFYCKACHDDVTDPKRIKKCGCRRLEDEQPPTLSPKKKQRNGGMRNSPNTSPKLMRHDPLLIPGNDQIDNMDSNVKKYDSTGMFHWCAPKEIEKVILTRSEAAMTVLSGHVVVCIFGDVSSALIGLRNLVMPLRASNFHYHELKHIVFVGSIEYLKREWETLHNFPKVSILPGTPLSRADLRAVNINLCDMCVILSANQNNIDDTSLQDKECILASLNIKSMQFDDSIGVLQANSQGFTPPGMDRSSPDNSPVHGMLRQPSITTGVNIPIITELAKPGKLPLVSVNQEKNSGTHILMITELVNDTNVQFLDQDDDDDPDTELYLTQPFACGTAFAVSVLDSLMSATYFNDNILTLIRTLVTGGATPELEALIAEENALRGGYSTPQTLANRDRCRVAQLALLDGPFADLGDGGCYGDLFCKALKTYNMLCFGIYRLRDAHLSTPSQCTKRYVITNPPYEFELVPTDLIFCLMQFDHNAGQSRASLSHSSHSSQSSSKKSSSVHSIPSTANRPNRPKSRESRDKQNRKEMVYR"}, "[2]": {"target": "Drosophila Slo1 (BK channel α subunit) (Drosophila) (UniProt Q03720)", "sequence (Q03720 whole entry)": "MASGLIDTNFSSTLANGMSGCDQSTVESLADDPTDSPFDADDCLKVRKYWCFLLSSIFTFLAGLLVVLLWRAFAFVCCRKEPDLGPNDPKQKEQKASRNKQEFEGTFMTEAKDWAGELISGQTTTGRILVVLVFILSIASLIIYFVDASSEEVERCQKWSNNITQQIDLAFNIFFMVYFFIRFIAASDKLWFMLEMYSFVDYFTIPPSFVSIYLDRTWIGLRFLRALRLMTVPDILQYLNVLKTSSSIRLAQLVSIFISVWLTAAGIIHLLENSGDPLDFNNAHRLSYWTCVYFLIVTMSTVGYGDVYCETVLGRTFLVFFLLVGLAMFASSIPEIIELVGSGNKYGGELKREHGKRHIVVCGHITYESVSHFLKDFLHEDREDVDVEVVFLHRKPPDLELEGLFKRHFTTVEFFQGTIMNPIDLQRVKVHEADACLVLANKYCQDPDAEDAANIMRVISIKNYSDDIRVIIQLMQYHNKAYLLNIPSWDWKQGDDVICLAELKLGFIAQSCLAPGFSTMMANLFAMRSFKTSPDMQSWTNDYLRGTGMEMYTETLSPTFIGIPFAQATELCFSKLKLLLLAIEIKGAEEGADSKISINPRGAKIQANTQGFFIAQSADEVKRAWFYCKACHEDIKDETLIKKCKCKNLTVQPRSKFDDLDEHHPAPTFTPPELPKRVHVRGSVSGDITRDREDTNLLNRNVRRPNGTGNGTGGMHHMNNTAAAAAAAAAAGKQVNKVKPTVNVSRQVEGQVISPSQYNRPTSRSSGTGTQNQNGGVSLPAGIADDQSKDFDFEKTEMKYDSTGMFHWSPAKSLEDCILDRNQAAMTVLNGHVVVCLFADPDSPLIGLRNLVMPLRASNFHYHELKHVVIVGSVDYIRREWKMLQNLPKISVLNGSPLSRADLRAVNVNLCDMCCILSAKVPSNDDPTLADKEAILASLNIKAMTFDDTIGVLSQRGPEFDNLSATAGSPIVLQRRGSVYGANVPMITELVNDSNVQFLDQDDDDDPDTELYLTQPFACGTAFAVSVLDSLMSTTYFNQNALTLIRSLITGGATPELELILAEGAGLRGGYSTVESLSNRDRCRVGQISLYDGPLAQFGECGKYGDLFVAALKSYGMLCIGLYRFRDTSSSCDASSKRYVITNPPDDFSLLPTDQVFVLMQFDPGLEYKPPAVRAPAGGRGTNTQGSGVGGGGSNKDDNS"}},
  "data": [
    {"binder": "B1", "values": [
      {"measurement": "patch clamp, inside-out patches of HEK293 cells, α:β2 transfection ratio 1:0.2, 10 μM Ca2+: share of random tests with a left shift of V50 to −30 mV from about +25 mV (called binding rate)", "setting": "[1]", "result": 100, "unit": "%"},
      {"measurement": "patch clamp, inside-out patches of HEK293 cells, transfection ratio 1:0.2: share of random tests with slow activation (called β2 binding rate)", "setting": "[2]", "result": 100, "unit": "%"}
    ]},
    {"binder": "B2", "values": [
      {"measurement": "patch clamp, inside-out patches of HEK293 cells, α:β2 transfection ratio 1:0.2: share of random tests whose currents showed rapid and complete inactivation (called binding rate)", "setting": "[1]", "result": 100, "unit": "%"},
      {"measurement": "patch clamp, inside-out patches of HEK293 cells: share of random tests with inactivation or brief openings (β2 binding ratio) at α:β2 transfection ratios 1:0.2 (about 7%), 1:1, 1:4 and 1:8", "setting": "[2]", "result": 85, "unit": "%"}
    ]}
  ]
}
